Assay [1] concerns the target human IgE (preparation not stated, or 'Calbiochem or U266-derived') (human, UniProt P01854-1 1-428). As to the kind of experiment: cell-based or functional assay.
Assay [2] addresses T1, cynomolgus IgE Cε3-Cε4 domain, C-terminally tagged with FLAG His10 (cynomolgus monkey).
T1 construct: also called Cynomolgus Ce3-4 FLAG His10
T1 chain: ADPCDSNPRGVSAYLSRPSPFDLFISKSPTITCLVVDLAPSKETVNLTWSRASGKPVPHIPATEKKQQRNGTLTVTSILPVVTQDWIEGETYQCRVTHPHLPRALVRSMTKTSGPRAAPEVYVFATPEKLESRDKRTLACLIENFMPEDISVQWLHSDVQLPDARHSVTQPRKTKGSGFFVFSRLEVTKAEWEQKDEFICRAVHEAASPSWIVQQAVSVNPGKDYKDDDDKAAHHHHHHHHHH
As to the kind of experiment: DELFIA epitope competition; competitor vs biotinylated IgE on immobilised IgG.

1 molecule from patent publication US20140127212A1 (AstraZeneca / MedImmune, published 2014) can be followed below.

Sequence of human IgE (preparation not stated, or 'Calbiochem or U266-derived') (P01854 other isoform, or with tags, fused parts or gaps): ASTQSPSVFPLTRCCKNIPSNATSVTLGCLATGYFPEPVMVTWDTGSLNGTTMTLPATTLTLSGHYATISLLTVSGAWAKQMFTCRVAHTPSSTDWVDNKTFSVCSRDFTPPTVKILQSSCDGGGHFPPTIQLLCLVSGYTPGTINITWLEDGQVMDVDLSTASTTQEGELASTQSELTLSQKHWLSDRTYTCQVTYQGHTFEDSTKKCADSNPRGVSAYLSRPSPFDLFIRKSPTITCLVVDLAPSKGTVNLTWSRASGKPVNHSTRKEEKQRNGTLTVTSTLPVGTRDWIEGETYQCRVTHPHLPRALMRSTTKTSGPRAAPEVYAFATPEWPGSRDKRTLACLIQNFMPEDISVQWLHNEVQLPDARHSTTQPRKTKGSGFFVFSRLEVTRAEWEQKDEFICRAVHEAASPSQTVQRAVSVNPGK

B1: Antibody 1 IgG (antibody, V domains shown)
VH: QVQLVQSGAEVKKPGATVKLSCKVYGYIFTDYNIYWVRQAPGKGLEWMGLIDPDNGETFYAEKFQGRATMTADTSSDRAYMELTSLTFEDTATYYCATVLHRRLKGGYDYWGRGTLVTVSS
VL: QSVLTQPPSVSGAPGQRVTISCTGSSSNIGAGYDVHWYQQLPGTAPKLLIYDNFNRPSGVPDRFSGSKSGTSASLAIIGLQTEDEADYYCQSYDSSLSGSLFGTGTKLTVL
notes: Whole human IgG (section 1.4, IgG1); also called parent antibody
For the molecule B1, the “IgE induced calcium signalling of RBL-ER51 cells, IC50” value in assay [1] is 34 nM. The binding result in assay [2] is “binds”.
